Test results: patent JP2014141434A (dated 2014)
Numbering of substitutions follows the chain as printed.

T1: ヒトROBO2 (human)
T1 construct: also called hROBO2; pCI−hROBO2
T1 chain: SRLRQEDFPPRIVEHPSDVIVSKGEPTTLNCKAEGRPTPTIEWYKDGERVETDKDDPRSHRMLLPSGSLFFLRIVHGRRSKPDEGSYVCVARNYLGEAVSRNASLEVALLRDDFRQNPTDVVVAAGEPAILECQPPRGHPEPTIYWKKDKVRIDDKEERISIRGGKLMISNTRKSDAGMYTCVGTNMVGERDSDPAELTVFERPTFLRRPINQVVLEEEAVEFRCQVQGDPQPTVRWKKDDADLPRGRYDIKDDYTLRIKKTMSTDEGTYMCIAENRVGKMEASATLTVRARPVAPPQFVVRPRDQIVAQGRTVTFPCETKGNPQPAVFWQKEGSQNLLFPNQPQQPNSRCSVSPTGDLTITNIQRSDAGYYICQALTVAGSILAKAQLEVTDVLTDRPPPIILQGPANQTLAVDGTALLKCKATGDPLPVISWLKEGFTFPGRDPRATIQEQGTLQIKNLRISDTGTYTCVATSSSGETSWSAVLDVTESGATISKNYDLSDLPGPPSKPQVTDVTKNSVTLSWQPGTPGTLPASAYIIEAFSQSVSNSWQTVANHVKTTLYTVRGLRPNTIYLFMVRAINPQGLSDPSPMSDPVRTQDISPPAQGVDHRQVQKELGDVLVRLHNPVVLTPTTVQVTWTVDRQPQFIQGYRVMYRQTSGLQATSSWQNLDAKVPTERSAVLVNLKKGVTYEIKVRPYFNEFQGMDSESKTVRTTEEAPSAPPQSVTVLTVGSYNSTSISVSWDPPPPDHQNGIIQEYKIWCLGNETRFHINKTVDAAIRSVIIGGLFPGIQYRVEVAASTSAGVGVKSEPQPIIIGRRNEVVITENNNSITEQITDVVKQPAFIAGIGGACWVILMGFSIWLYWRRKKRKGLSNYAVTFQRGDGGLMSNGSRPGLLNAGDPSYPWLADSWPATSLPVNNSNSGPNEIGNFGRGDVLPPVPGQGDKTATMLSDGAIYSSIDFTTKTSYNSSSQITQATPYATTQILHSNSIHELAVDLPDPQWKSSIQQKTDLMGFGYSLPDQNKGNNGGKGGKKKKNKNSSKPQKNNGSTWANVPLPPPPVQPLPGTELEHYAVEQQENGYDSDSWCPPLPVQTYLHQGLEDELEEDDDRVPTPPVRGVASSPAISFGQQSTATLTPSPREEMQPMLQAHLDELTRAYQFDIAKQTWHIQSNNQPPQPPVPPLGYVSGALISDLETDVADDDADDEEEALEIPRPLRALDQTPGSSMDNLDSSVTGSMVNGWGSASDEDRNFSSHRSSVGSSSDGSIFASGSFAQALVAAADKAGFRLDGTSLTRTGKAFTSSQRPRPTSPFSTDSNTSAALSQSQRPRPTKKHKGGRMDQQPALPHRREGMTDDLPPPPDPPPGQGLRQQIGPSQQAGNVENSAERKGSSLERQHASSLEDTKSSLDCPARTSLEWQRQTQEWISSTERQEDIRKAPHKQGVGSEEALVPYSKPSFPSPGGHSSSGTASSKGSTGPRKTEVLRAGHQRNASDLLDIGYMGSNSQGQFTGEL

T2: ラットROBO4 (pCI−raROBO4導入細胞) (rat, UniProt Q80W87 38-949 at identity 0.93))
T2 construct: also called rat ROBO4; raROBO4
T2 chain: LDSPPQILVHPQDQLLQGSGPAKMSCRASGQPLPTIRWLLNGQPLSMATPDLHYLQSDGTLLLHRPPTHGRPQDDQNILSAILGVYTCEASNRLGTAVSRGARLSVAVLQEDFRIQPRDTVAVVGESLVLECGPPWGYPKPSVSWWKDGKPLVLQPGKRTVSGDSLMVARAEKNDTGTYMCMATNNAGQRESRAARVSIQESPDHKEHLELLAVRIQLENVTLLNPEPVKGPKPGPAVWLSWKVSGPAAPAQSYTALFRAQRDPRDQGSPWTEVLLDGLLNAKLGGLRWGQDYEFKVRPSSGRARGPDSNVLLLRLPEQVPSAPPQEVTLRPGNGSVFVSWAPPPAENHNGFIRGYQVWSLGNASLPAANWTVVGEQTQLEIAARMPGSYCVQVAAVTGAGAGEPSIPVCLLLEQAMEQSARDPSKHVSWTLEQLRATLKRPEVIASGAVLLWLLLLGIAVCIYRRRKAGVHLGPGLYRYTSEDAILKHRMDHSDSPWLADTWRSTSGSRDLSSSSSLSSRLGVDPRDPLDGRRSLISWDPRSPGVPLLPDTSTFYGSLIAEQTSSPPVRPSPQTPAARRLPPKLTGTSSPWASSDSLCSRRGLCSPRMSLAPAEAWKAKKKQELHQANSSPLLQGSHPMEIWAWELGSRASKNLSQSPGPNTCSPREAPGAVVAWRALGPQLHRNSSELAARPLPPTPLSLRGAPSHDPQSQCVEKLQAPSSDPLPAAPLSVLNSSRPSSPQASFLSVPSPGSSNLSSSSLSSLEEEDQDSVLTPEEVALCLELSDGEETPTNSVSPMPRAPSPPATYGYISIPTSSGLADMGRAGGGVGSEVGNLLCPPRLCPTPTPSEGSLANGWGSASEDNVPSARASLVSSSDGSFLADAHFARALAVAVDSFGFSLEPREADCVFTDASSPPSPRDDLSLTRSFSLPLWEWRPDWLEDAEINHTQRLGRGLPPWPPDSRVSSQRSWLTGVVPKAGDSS

B1: ヒト化MAb1抗体 H−2143 (antibody, human IgG2, kappa, V domains shown)
VH: EVQLVESGGGLVQPGGSLRLSCAASGFTFSTYAMSWVRQAPGKRLEWVATISQGGTYTYYPDSVKGRFTISRDNAKNTLYLQMNSLRAEDTAVYYCARLIYYDYLDYWGQGTLVTVSS
VL: DIVMTQSPLSLPVTLGEPASISCRSSQSLENENKNLYLNWYLQKPGQSPQLLIYRVSNRFSGVPDRFSGSGSGTDFTLKISRVEAEDVGVYYCLQVTHVPWTFGPGTKVDIKR
notes: Humanised IgG2 / kappa; also called H-2143; hMAb1-H4 / hMAb1-L2
B2: ヒト化MAb1抗体 H−1143 (antibody, human IgG2, kappa, V domains shown)
VH: B1 VH with R44G
VL: B1 VL
notes: Humanised IgG2 / kappa; also called H-1143; hMAb1-H2 / hMAb1-L2
B3: ヒト化MAb1抗体 H−2140 (antibody, human IgG2, kappa, V domains shown)
VH: B1 VH
VL: B1 VL with E32S, K34G, L36T
notes: Humanised IgG2 / kappa; also called H-2140; hMAb1-H4 / hMAb1-L1
B4: 抗ROBO4マウスモノクローナル抗体 MAb1 (antibody, V domains shown)
VH: EVQLVESGGGLVKPGGSLKLSCAASGFTFSTYAMSWVRQTPEKRLEWVATISNGGTYTYYPDSVKGRFTISRDNAENTLYLQMSSLRSEDTAMYFCARLIYYDYLDYWGHGTTLTVSS
VL: DAVMTQTPLSLPVSLGDQASISCRSSQSLENSNGNTYLNWYFQKPGQSPQLLIYRVSNRFSGVLDRFSGSGSGTDFTLKISRVEAEDFGVYFCLQVTHVPWTFGGGTKLEIKR
notes: Mouse IgG1 (gamma 1) / kappa from a hybridoma; The constant regions are not in the listing; also called MAb1

Biological target: T1, ヒトROBO2
Assay: flow cytometry, transfected HEK293 cells

**Q.** Does B1 bind?
**A.** no binding (tested: 10 μg/mL (method of 4)-4-2))

**Q.** Does B2 bind?
**A.** no binding (tested: 10 μg/mL (method of 4)-4-2))

**Q.** Does B3 bind?
**A.** no binding (tested: 10 μg/mL (method of 4)-4-2))

**Q.** Does B4 bind?
**A.** no binding (tested: 10 μg/mL)

Biological target: T2, ラットROBO4 (pCI−raROBO4導入細胞)
Assay: flow cytometry, transfected HEK293 cells

**Q.** Does B1 bind?
**A.** no binding (tested: 10 μg/mL (method of 4)-3-2))

**Q.** Does B2 bind?
**A.** no binding (tested: 10 μg/mL (method of 4)-3-2))

**Q.** Does B3 bind?
**A.** no binding (tested: 10 μg/mL (method of 4)-3-2))

**Q.** Does B4 bind?
**A.** no binding (tested: 10 μg/mL)
